Laboratory results taken from patent US10556944B2, “Fab region-binding peptide” (priority 2013, dated 2020).
Where no end group is shown, it is not given here.

Biological target: T1, anti-TNFα antibody-Fab (IgG-Fab derived from anti-TNFα monoclonal antibody, adalimumab) (Homo sapiens, UniProt P01834+P01857)
T1 construct: cleaving a humanized monoclonal IgG formulation as a starting material into a Fab fragment and an Fc fragment by papain; purchased
Assay: Biacore 3000 surface plasmon resonance, affinity of SpG-β1 mutants for immobilized IgG-Fab
Format: binding
Details: for affinity / binding ability for the IgG-Fab compared with the wild-type (in words): Tables 1 and 3, FIGS. 2 and 3

[1] = Table 3, Example 4, GST-cleaved type (Pep-), constructs Pep.1d, Pep.1dC, Pep.2dC
[2] = Table 3, Example 4, fold of wild-type KA of the same construct type
[3] = Table 2, Example 3, GST-fused one-domain peptide
[4] = Table 2, Example 3, GST-fused one-domain peptide, 25° C., pH 7.4
[5] = Table 2, Example 3, fold of wild-type KA, GST-fused one-domain peptide

Q: For “Pep.2dC K10R/K13T/T18A/E19I/V21D/T25M/F30L/Y33F/N35F/D47A: SpG-β1 mutant, SEQ ID NO: 87, GST-cleaved two domain type with Cys at the C-terminus”, which KA [1] is on record?
A: The KA was 8.56e+07 M⁻¹.

Q: And the koff [1]?
A: Its koff is 0.0014 s⁻¹.

Q: What about the kon [1] of the same substance?
A: Its kon is 117000 s/M.

Q: What about the “KA Vs. Wild” value [2] of the same substance?
A: Its value is 253.

Q: What about the “KA Vs. Wild” value (Table 3, Example 4, fold of wild-type KA of the same construct type, listed as Pep-SpGβ1-K10R/K13T/T18A/E19I/V21D/T25M/F30L/Y33F/N35F/D47A.2dC) of the same substance?
A: The value was no less than 200.

Q: How did the KA [3] turn out when “K13T/E19I/A23T/F30L/Y33F/D47N/K50R: GST-fused one-domain SpG-β1 mutant, amino acid SEQ ID NO: 45 (TTYKLILNGKTLTGETTTIAVDTATAEKVLKQFANDNGVDGEWTYDNATRTFTVTE; also: GST-fused)” was run?
A: Its KA is 2.63e+06 M⁻¹.

Q: What about the koff [4] of the same substance?
A: Its koff is 0.0046 s⁻¹.

Q: What about the kon [4] of the same substance?
A: The kon was 120000 s/M.

Q: What about the “KA Vs. Wild” value [5] of the same substance?
A: The value was 7.0.

Q: With “K13T/E19I/E27D/F30L/K31R: GST-fused one-domain SpG-β1 mutant, amino acid SEQ ID NO: 35 (TTYKLILNGKTLTGETTTIAVDAATADKVLRQYANDNGVDGEWTYDDATKTFTVTE; also: GST-fused)” as the substance, how does the KA [3] read?
A: The KA was 2.74e+06 M⁻¹.

Q: And the kon [4]?
A: Its kon is 150000 s/M.

Q: And the “KA Vs. Wild” value [5]?
A: Its value is 7.3.

Q: For “K13T/E19I/D22E/A24T/F30L/Y33F/D47G: GST-fused one-domain SpG-β1 mutant, amino acid SEQ ID NO: 79 (TTYKLILNGKTLTGETTTIAVEATTAEKVLKQFANDNGVDGEWTYDGATKTFTVTE; also: GST-fused)”, which KA [3] is on record?
A: The KA was 1.32e+06 M⁻¹.

Q: And the koff [4]?
A: The koff was 0.0053 s⁻¹.

Q: What about the kon [4] of the same substance?
A: The kon was 69500 s/M.

Q: What about the “KA Vs. Wild” value [5] of the same substance?
A: Its value is 3.5.

Q: With “K13T/E15Q/E19V/F30L/V39L: GST-fused one-domain SpG-β1 mutant, amino acid SEQ ID NO: 61 (TTYKLILNGKTLTGQTTTVAVDAATAEKVLKQYANDNGLDGEWTYDDATKTFTVTE; also: GST-fused)” as the substance, how does the KA [3] read?
A: The KA was 1.42e+06 M⁻¹.

Q: And the koff [4]?
A: The koff was 0.0063 s⁻¹.

Q: What about the kon [4] of the same substance?
A: The kon was 89800 s/M.

Q: And the “KA Vs. Wild” value [5]?
A: Its value is 3.8.

Q: For “K13S/E19V/F30L/Y33F: GST-fused one-domain SpG-β1 mutant, amino acid SEQ ID NO: 81 (TTYKLILNGKTLSGETTTVAVDAATAEKVLKQFANDNGVDGEWTYDDATKTFTVTE; also: GST-fused, end not given here)”, which KA [3] is on record?
A: Its KA is 1.54e+06 M⁻¹.

Q: And the koff [4]?
A: The koff was 0.0064 s⁻¹.

Q: What about the kon [4] of the same substance?
A: The kon was 98400 s/M.

Q: And the “KA Vs. Wild” value [5]?
A: Its value is 4.1.

Q: Which KA [1] does the source give for “Pep.1dC K10R/K13T/T18A/E19I/V21D/T25M/F30L/Y33F/N35F/D47A (TTYKLILNGRTLTGETTAIADDAAMAEKVLKQFAFDNGVDGEWTYDAATKTFTVTE)” here?
A: Its KA is 1.56e+07 M⁻¹.

Q: What about the koff [1] of the same substance?
A: The koff was 0.0062 s⁻¹.

Q: What about the kon [1] of the same substance?
A: Its kon is 97700 s/M.

Q: And the “KA Vs. Wild” value [2]?
A: Its value is 88.

Q: For “K13T/E19I/V21D/K28I/F30L/K31R/D47H: GST-fused one-domain SpG-β1 mutant, amino acid SEQ ID NO: 75 (TTYKLILNGKTLTGETTTIADDAATAEIVLRQYANDNGVDGEWTYDHATKTFTVTE; also: GST-fused)”, which KA [3] is on record?
A: Its KA is 1.39e+06 M⁻¹.

Q: What about the koff [4] of the same substance?
A: The koff was 0.0068 s⁻¹.

Q: And the kon [4]?
A: The kon was 95000 s/M.

Q: And the “KA Vs. Wild” value [5]?
A: The value was 3.7.

Q: What does the source list for “K13S/E19I/F30L: GST-fused one-domain SpG-β1 mutant, amino acid SEQ ID NO: 29 (TTYKLILNGKTLSGETTTIAVDAATAEKVLKQYANDNGVDGEWTYDDATKTFTVTE; also: GST-fused, end not given here)”?
A: KA [3]: 2.23e+06 M⁻¹; kon [4]: 137000 s/M; KA Vs. Wild [5]: 6.0

Q: How did the KA [3] turn out when “K13T/E19I/K28N/E42K: GST-fused one-domain SpG-β1 mutant, amino acid SEQ ID NO: 39 (TTYKLILNGKTLTGETTTIAVDAATAENVFKQYANDNGVDGKWTYDDATKTFTVTE; also: GST-fused)” was run?
A: The KA was 1.1e+06 M⁻¹.

Q: And the koff [4]?
A: The koff was 0.0124 s⁻¹.

Q: What about the kon [4] of the same substance?
A: Its kon is 137000 s/M.

Q: What about the “KA Vs. Wild” value [5] of the same substance?
A: Its value is 3.0.

Q: Which KA [3] does the source give for “K13T/V21I/A23T/F30L/E42L: GST-fused one-domain SpG-β1 mutant, amino acid SEQ ID NO: 25 (TTYKLILNGKTLTGETTTEAIDTATAEKVLKQYANDNGVDGLWTYDDATKTFTVTE; also: GST-fused)” here?
A: Its KA is 1.44e+06 M⁻¹.

Q: And the kon [4]?
A: The kon was 85000 s/M.

Q: And the “KA Vs. Wild” value [5]?
A: Its value is 3.9.

Q: What does the source list for “K13T/E19I/Y33F/N35Y/V39L: GST-fused one-domain SpG-β1 mutant, amino acid SEQ ID NO: 41 (TTYKLILNGKTLTGETTTIAVDAATAEKVFKQFAYDNGLDGEWTYDDATKTFTVTE; also: GST-fused)”?
A: KA [3]: 1.87e+06 M⁻¹; koff [4]: 0.0049 s⁻¹; kon [4]: 90500 s/M; KA Vs. Wild [5]: 5.0

Q: “Pep.1dC K13T/E19I/V21D/T25M/F30L/Y33F/N35F/D47A (TTYKLILNGKTLTGETTTIADDAAMAEKVLKQFAFDNGVDGEWTYDAATKTFTVTE)” was tested. Which KA [1] did it give?
A: Its KA is 5.47e+06 M⁻¹.

Q: What about the koff [1] of the same substance?
A: Its koff is 0.0137 s⁻¹.

Q: What about the kon [1] of the same substance?
A: Its kon is 74700 s/M.

Q: What about the “KA Vs. Wild” value [2] of the same substance?
A: Its value is 31.

Q: How did the “affinity constant (KA), order of magnitude” value (Example 4, GST-cleaved one domain type) turn out when “Pep.1d K10R/K13T/T18A/E19I/V21D/T25M/F30L/Y33F/N35F/D47A: SpG-β1 mutant, SEQ ID NO: 87, GST-cleaved one domain type (TTYKLILNGRTLTGETTAIADDAAMAEKVLKQFAFDNGVDGEWTYDAATKTFTVTE; SpG mutant)” was run?
A: The value was ~10^7 M^−1.

Q: And the KA [1]?
A: Its KA is 1.19e+07 M⁻¹.

Q: What about the koff [1] of the same substance?
A: The koff was 0.0117 s⁻¹.

Q: And the kon [1]?
A: Its kon is 138000 s/M.

Q: What about the “KA Vs. Wild” value [2] of the same substance?
A: The value was 83.

Q: What about the “KA Vs. Wild” value (Table 3, Example 4, fold of wild-type KA of the same construct type, listed as Pep-SpGβ1-K10R/K13T/T18A/E19I/V21D/T25M/F30L/Y33F/N35F/D47A.1d) of the same substance?
A: The value was no less than 80.

Q: And the “affinity / binding ability for the IgG-Fab compared with the wild-type (in words)” value?
A: Its value is “significantly higher affinity for the IgG-Fab than Pep-SpGβ1-Wild.1d”.

Q: Which results are given for “K13T/E19I/A23D/V39L: GST-fused one-domain SpG-β1 mutant, amino acid SEQ ID NO: 31 (TTYKLILNGKTLTGETTTIAVDDATAEKVFKQYANDNGLDGEWTYDDATKTFTVTE; also: GST-fused)”?
A: KA [3]: 1.36e+06 M⁻¹; kon [4]: 84300 s/M; KA Vs. Wild [5]: 3.6

Q: With “K13T/E19I/V21D/T25M/F30L/Y33F/N35F/D47A: GST-fused one-domain SpG-β1 mutant, amino acid SEQ ID NO: 55 (TTYKLILNGKTLTGETTTIADDAAMAEKVLKQFAFDNGVDGEWTYDAATKTFTVTE; also: GST-fused)” as the substance, how does the KA [3] read?
A: The KA was 3.47e+06 M⁻¹.

Q: What about the koff [4] of the same substance?
A: Its koff is 0.003 s⁻¹.

Q: And the kon [4]?
A: Its kon is 104000 s/M.

Q: And the “KA Vs. Wild” value [5]?
A: The value was 9.3.

Q: With “K13T/E19I/K28N/F30L/Y33F: GST-fused one-domain SpG-β1 mutant, amino acid SEQ ID NO: 53 (TTYKLILNGKTLTGETTTIAVDAATAENVLKQFANDNGVDGEWTYDDATKTFTVTE; also: GST-fused)” as the substance, how does the KA [3] read?
A: The KA was 1.44e+06 M⁻¹.

Q: And the koff [4]?
A: Its koff is 0.0061 s⁻¹.

Q: And the kon [4]?
A: The kon was 88000 s/M.

Q: And the “KA Vs. Wild” value [5]?
A: Its value is 3.9.

Q: How did the KA [1] turn out when “Pep.1d K13T/T18A/E19I/V21A/K28I/F30L/Y33F/V39I: SpG-β1 mutant, SEQ ID NO: 85, GST-cleaved one domain type (TTYKLILNGKTLTGETTAIAADAATAEIVLKQFANDNGIDGEWTYDDATKTFTVTE; SpG mutant)” was run?
A: The KA was 5.34e+06 M⁻¹.

Q: What about the koff [1] of the same substance?
A: Its koff is 0.0207 s⁻¹.

Q: And the kon [1]?
A: The kon was 111000 s/M.

Q: And the “KA Vs. Wild” value [2]?
A: The value was 37.

Q: What about the “affinity / binding ability for the IgG-Fab compared with the wild-type (in words)” value of the same substance?
A: The value was “significantly higher affinity for the IgG-Fab than Pep-SpGβ1-Wild.1d”.
